Assay results reported in PMC6318248, “Oligomerisation of Synaptobrevin-2 Studied by Native Mass Spectrometry and Chemical Cross-Linking” (Journal of the American Society for Mass Spectrometry, 2018).
Several values for one entry are separate records, joined by “and”; a condition that tells them apart may be missing. Identical values can stand only once. Like-named read-outs stand apart in the source and are kept apart here.

B1: Synaptobrevin-2, C-terminal fragment of the cytosolic domain Syb(49-96) (domain or fragment, Rattus norvegicus, UniProt P63045 49-96, looked up)
chain: NVDKVLERDQKLSELDDRADALQAGASQFETSAAKLKRKYWWKNLKMM
notes: Synaptobrevin-2, Rattus norvegicus, UniProt P63045, residues 49-96 (C-terminal half of the SNARE motif and the juxtamembrane domain); Residual residues of the thrombin cleavage site stay at the N-terminus (measured mass 6045 Da); Plasmid was a gift from R. Jahn; source: E. coli BL21 (DE3), purified (Ni2+ IMAC, thrombin cleavage, reversed IMAC, SEC without detergent); not shown: His-tag, …

Experiments:
[1] = molecular target: Synaptobrevin-2, full-length protein Syb(1-116) (Rattus norvegicus) (UniProt P63045); test: cross-linking; Syb(1-116) in solution (chaps), 10 μM and 100 μM protein, BS3 (83-166 μM at 100 μM protein), 1 h at 25 °C; Coomassie gel and western blot; cross-linked peptides by LC-MS/MS
[2] = molecular target: Synaptobrevin-2, full-length protein Syb(1-116) (Rattus norvegicus) (UniProt P63045); test: as above; remark: listed apart in the source
[3] = molecular target: the molecule itself; test: cross-linking; 650 μM Syb(49-96), 180 and 250 μM BS3, 1 h at 25 °C; Coomassie gel and western blot; cross-linked peptides by LC-MS/MS
[4] = molecular target: the molecule itself; test: ion mobility mass spectrometry; Syb(49-96), nESI, home-built drift-tube instrument, helium buffer gas, soft conditions; limited transmission for high m/z
[5] = molecular target: the molecule itself; test: native MS; Syb(49-96) at 10 μM, 200 mM ammonium acetate pH 7.0

Molecule	stoichiometry N [1]	stoichiometry N [2]	stoichiometry N [3]	stoichiometry N [4]	stoichiometry N [5]
Synaptobrevin-2, full-length protein Syb(1-116) (from UniProt P63045 1-116) (natural protein)	2 and < 5	< 6			
B1			≤ 10	≤ 3	2
